# Data as given in patent US11739161B2, “Methods for treating and diagnosing prostate cancer” (Tufts Medical Center, Inc., priority 2017, dated 2023).
# Legend:
# Assay type in all cases: cell-based, human
# [1] = system: AKT and S6 phosphorylation in PC-3 cells; test: RNASE4-induced phosphorylation of AKT and S6 (immunoblot); conditions: serum-starved PC-3, RNASE4 1 μg/ml, time course
# Description: (§1) FIGS. 11A-F. RNASE4 induces PC-3 cell proliferation and phosphorylation of AKT and S6. (A) Exogenous RNASE4 (1 μg/ml) stimulates PC-3 cells proliferation in the presence of 2% FBS. Cell numbers were determined by MTT assay. (B) Time course of AKT and S6 phosphorylation of serum-starved PC-3 cells by RNASE4 (1 μg/ml). Left panels, immunoblots; right panels, quantification of p-AKT and p-S6 normalized to total AKT and S6 by Image J. (C) Effect of AKT inhibitor MK-2206, PI3K inhibitors LY294002 and Wortmannin, and mTOR inhibitor Rapamycin on RNASE4-induced PC-3 cell proliferation. Cells were pre-incubated with the inhibitors at the indicated concentrations for 1 hour prior to be stimulated by RNASE4 (1 μg/ml) for 3 days. Cell numbers were determined by MTT assay. (D) Human phospho-RTK antibody array analysis of starved PC-3 cells treated with or without 1 μg/ml RNASE4 for 5 minutes. (E) Time course of AXL phosphorylation stimulated by RNASE4 in PC-3 cells. Serum-starved PC-3 cells were treated with 1 μg/ml RNASE4 for different time. Cell lysates were analyzed for total AXL and phopho-AXL by immunoblotting. Left panels, immunoblots; right panel, quantification phospho-AXL normalized to total AXL by Image J analysis. (F) Effect of AXL inhibitor R428 on RNASE4-induced PC-3 cell proliferation. […] Cell numbers were determined by MTT assay. […]
# PC-3 cells = test: RNASE4-induced cell proliferation (MTT assay); conditions: exogenous RNASE4 1 μg/ml, PC-3, 2% FBS
# Description: FIGS. 11A-F. RNASE4 induces PC-3 cell proliferation and phosphorylation of AKT and S6. (A) Exogenous RNASE4 (1 μg/ml) stimulates PC-3 cells proliferation in the presence of 2% FBS. Cell numbers were determined by MTT assay. (B) Time course of AKT and S6 phosphorylation of serum-starved PC-3 cells by RNASE4 (1 μg/ml). Left panels, immunoblots; right panels, quantification of p-AKT and p-S6 normalized to total AKT and S6 by Image J. (C) Effect of AKT inhibitor MK-2206, PI3K inhibitors LY294002 and Wortmannin, and mTOR inhibitor Rapamycin on RNASE4-induced PC-3 cell proliferation. Cells were pre-incubated with the inhibitors at the indicated concentrations for 1 hour prior to be stimulated by RNASE4 (1 μg/ml) for 3 days. Cell numbers were determined by MTT assay. (D) Human phospho-RTK antibody array analysis of starved PC-3 cells treated with or without 1 μg/ml RNASE4 for 5 minutes. (E) Time course of AXL phosphorylation stimulated by RNASE4 in PC-3 cells. Serum-starved PC-3 cells were treated with 1 μg/ml RNASE4 for different time. Cell lysates were analyzed for total AXL and phopho-AXL by immunoblotting. Left panels, immunoblots; right panel, quantification phospho-AXL normalized to total AXL by Image J analysis. (F) Effect of AXL inhibitor R428 on RNASE4-induced PC-3 cell proliferation. Serum-starved PC-3 cells were incubated with 1 or 3 μM R428 for 3 hours and then stimulated by 1 μg/ml of RNASE4 for 3 days. Cell numbers were determined by MTT assay. Data shown are means±SEM of a representative experiments in triplicates of 3 independent repeats. **P≤0.01 and ***P≤0.001, by unpaired two-tailed Student's t test.
# [2] = system: AXL phosphorylation in PC-3 cells; test: AXL phosphorylation (phospho-RTK array, immunoblot); conditions: serum-starved PC-3, 1 μg/ml RNASE4
# Description: as §1, with “Serum-starved PC-3 cells were treated with 1 μg/ml RNASE4 for different time.” left out, “analysis.” for “analysis. (F) Effect of AXL inhibitor R428 on RNASE4-induced PC-3 cell proliferation.”
# Human Phospho-RTK Arrays were purchased from R&D Systems. […] Protein concentrations were quantified by Bradford Assay and 1.5 mg cell lysate was used per array. Pixel densities on were analyzed by ImageJ. […]
# DU145 cells = test: RNASE4 knockdown, cell proliferation (Coulter counter); conditions: DU145, exogenous RNASE4 1 μg/ml
# Excerpt: FIGS. 14A-D. RNASE4 knockdown inhibits DU145 cell proliferation in vitro and colony formation in soft agar. (A) Immunoblot analysis of RNASE4 in DU145 cells stably transfected with shControl, shRNASE4-1, and shRNASE4-2. (B) qRT-PCR analysis of RNASE4 mRNA normalized to GAPDH in DU145 cells stably transfected with shControl, shRNASE4-1, and shRNASE4-2. (C) Effect of RNASE4 knockdown on cell proliferation. Cell numbers were counted by Coulter counter. Exogenous RNASE4, when presented, was at the concentration of 1 μg/ml. Data shown are from a representative experiment in triplicates of 3 independent experiments. (D) Effects of RNASE4 knockdown on colonies formation and growth of DU145 cells in soft agar. The same numbers of control and RNASE4 knockdown cells were seeded in soft agar, and grown in the absence or presence of 1 μg/ml of RNASE4 for 14 days. Colonies were counted and size measured on a Nikon Eclipse ti microscope. Top panels, representative images of colonies; scale bars=100 μm. Bottom panels, quantification of DU145 cell colonies and sizes in soft agar. Data shown are means±SEM of five randomly selected fields per dish from a representative experiment. **P≤0.01 and ***P≤0.001, by two-tailed Student's t test.
# (§2) Lentiviral mediated shRNA system (pGIPZ, Open Biosystems) was used to generate control and RNASE4 knockdown cell lines. […]
# LNCaP cells = test: as above; conditions: exogenous RNASE4 1 μg/ml
# Excerpt: FIGS. 15A-D. RNASE4 knockdown inhibits LNCaP cell proliferation in vitro and colony formation in soft agar. (A) Immunoblot analysis of RNASE4 in LNCaP cells stably transfected with shControl, shRNASE4-1, and shRNASE4-2. (B) qRT-PCR analysis of RNASE4 mRNA normalized to GAPDH in LNCaP cells stably transfected with shControl, shRNASE4-1, and shRNASE4-2. (C) Effect of RNASE4 knockdown on LNCaP cell proliferation. Cell numbers were counted by Coulter counter. Exogenous RNASE4, when presented, was at the concentration of 1 μg/ml. Data shown are from a representative experiment in triplicates of 3 independent experiments. (D) Effects of RNASE4 knockdown on colonies formation and growth of LNCaP cells in soft agar. The same numbers of control and RNASE4 knockdown cells were seeded in soft agar, and grown in the absence or presence of 1 μg/ml of RNASE4 for 14 days. Colonies were counted and size measured on a Nikon Eclipse ti microscope. Top panels, representative images of colonies; scale bars=100 μm. Bottom panels, quantification of LMCaP cell colonies and sizes in soft agar. Data shown are means±SEM of five randomly selected fields per dish from a representative experiment. **P≤0.01 and ***P≤0.001, by two-tailed Student's t test.
# as §2
molecule,measurement,setting,value
"RNASE4: recombinant human RNASE4 protein from pET11 expression in E. coli, purified by reversed-phase HPLC; added exogenously (protein, UniProt P34096 29-147, looked up) Ribonuclease 4: QDGMYQRFLRQHVHPEETGGSDRYCNLMMQRRKMTLYHCKRFNTFIHEDIWNIRSICSTTNIQCKNGKMNCHEGVVKVTDCRDTGSSRAPNCRYRAIASTRRVVIACEGNPQVPVHFDG",activation (phosphorylation) of AKT and S6,[1],rapidly and continuously activated
same,cell proliferation,PC-3 cells,stimulates
same,phosphorylation of AXL,[2],induced phosphorylation
same,rescue of the effect of RNASE4 knockdown on cell proliferation,DU145 cells,able to rescue
same,rescue of the effect of RNASE4 knockdown on cell proliferation,LNCaP cells,able to rescue
